Earlier results, collected in US20180147231A1, “METHOD FOR TREATMENT AND PROGNOSIS OF COLORECTAL CANCER” (Oxford University Innovation Limited, priority 2015, published 2018).

Legend:
[1] = target: T1, IL-22R complex (Homo sapiens, UniProt Q08334+Q8N6P7); conditions: variant of IL-22 (SEQ ID NO: 5) compared with wild type; cited from earlier work
T1 sequence (Q8N6P7 16-228 limits assumed): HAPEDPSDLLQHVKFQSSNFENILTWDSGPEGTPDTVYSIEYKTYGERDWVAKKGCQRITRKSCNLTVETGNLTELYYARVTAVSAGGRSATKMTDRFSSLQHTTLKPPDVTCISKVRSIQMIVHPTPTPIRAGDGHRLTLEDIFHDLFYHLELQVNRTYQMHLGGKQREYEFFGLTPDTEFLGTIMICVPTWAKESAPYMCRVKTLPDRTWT
T1 sequence (Q08334 20-220 limits assumed): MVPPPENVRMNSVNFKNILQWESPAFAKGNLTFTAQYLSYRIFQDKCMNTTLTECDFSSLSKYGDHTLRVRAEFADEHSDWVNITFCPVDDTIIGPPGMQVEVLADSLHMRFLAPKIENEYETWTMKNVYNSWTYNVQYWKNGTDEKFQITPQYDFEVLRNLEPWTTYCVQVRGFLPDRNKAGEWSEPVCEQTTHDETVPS

[2] = target: T2, IL-22RA1 subunit of the receptor (Homo sapiens, UniProt Q8N6P7); conditions: variant of IL-22 (SEQ ID NO: 5) compared with wild type; cited from earlier work
T2 sequence (Q8N6P7 16-574): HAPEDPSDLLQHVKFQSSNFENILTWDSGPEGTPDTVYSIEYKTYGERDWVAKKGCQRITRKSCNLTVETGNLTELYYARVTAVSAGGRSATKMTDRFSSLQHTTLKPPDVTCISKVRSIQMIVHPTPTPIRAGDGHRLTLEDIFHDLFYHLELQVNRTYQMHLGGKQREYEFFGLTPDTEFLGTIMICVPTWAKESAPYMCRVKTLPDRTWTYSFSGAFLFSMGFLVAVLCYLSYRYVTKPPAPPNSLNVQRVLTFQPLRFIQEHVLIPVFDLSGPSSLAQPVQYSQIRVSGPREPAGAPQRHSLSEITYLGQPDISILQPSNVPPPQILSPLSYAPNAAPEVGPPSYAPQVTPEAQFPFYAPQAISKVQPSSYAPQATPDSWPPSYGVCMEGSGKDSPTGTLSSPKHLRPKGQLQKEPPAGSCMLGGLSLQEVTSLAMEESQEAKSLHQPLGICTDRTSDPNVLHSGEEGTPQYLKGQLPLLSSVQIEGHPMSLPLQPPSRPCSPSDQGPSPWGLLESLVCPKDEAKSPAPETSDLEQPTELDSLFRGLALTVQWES

B1: N54G: reduced-function variant of IL-22 (SEQ ID NO: 5) in which N54 is mutated from asparagine to glutamine (protein, listed as Homo sapiens)
chain: MAALQKSVSSFLMGTLATSCLLLLALLVQGGAAAPISSHCRLDKSNFQQPYITGRTFMLAKEASLADNNTDVRLIGEKLFHGVSMSERCYLMKQVLNFTLEEVLFPQSDRFQPYMQEVVPFLARLSNRLSTCHIEGDDLHIQRNVQKLKDTVKKLGESGEIKAIGELDLLFMSLRNACI
[1]
  Binding to the IL-22R complex: reduce binding

B2: E117A: variant of IL-22 (SEQ ID NO: 5) in which E117 is mutated to alanine (protein, listed as Homo sapiens)
chain: MAALQKSVSSFLMGTLATSCLLLLALLVQGGAAAPISSHCRLDKSNFQQPYITNRTFMLAKEASLADNNTDVRLIGEKLFHGVSMSERCYLMKQVLNFTLEEVLFPQSDRFQPYMQAVVPFLARLSNRLSTCHIEGDDLHIQRNVQKLKDTVKKLGESGEIKAIGELDLLFMSLRNACI
[1]
  Binding to the IL-22R complex: reduce binding

B3: N54A: variant of IL-22 (SEQ ID NO: 5) in which N54 is mutated to alanine (protein, listed as Homo sapiens)
chain: MAALQKSVSSFLMGTLATSCLLLLALLVQGGAAAPISSHCRLDKSNFQQPYITARTFMLAKEASLADNNTDVRLIGEKLFHGVSMSERCYLMKQVLNFTLEEVLFPQSDRFQPYMQEVVPFLARLSNRLSTCHIEGDDLHIQRNVQKLKDTVKKLGESGEIKAIGELDLLFMSLRNACI
[1]
  Binding to the IL-22R complex: reduce binding

B4: D67A: variant of IL-22 (SEQ ID NO: 5) in which D67 is mutated to alanine (protein, listed as Homo sapiens)
chain: MAALQKSVSSFLMGTLATSCLLLLALLVQGGAAAPISSHCRLDKSNFQQPYITNRTFMLAKEASLAANNTDVRLIGEKLFHGVSMSERCYLMKQVLNFTLEEVLFPQSDRFQPYMQEVVPFLARLSNRLSTCHIEGDDLHIQRNVQKLKDTVKKLGESGEIKAIGELDLLFMSLRNACI
[2]
  Binding to the IL-22RA1 subunit of the receptor: reduce binding

B5: V72A: variant of IL-22 (SEQ ID NO: 5) in which V72 is mutated to A (protein, listed as Homo sapiens)
chain: MAALQKSVSSFLMGTLATSCLLLLALLVQGGAAAPISSHCRLDKSNFQQPYITNRTFMLAKEASLADNNTDARLIGEKLFHGVSMSERCYLMKQVLNFTLEEVLFPQSDRFQPYMQEVVPFLARLSNRLSTCHIEGDDLHIQRNVQKLKDTVKKLGESGEIKAIGELDLLFMSLRNACI
[2]
  Binding to the IL-22RA1 subunit of the receptor: reduce binding

B6: T56A: variant of IL-22 (SEQ ID NO: 5) in which T56 is mutated to alanine (protein, listed as Homo sapiens)
chain: MAALQKSVSSFLMGTLATSCLLLLALLVQGGAAAPISSHCRLDKSNFQQPYITNRAFMLAKEASLADNNTDVRLIGEKLFHGVSMSERCYLMKQVLNFTLEEVLFPQSDRFQPYMQEVVPFLARLSNRLSTCHIEGDDLHIQRNVQKLKDTVKKLGESGEIKAIGELDLLFMSLRNACI
[1]
  Binding to the IL-22R complex: reduce binding

B7: K162A: variant of IL-22 (SEQ ID NO: 5) in which K162 is mutated to alanine (protein, listed as Homo sapiens)
chain: MAALQKSVSSFLMGTLATSCLLLLALLVQGGAAAPISSHCRLDKSNFQQPYITNRTFMLAKEASLADNNTDVRLIGEKLFHGVSMSERCYLMKQVLNFTLEEVLFPQSDRFQPYMQEVVPFLARLSNRLSTCHIEGDDLHIQRNVQKLKDTVKKLGESGEIAAIGELDLLFMSLRNACI
[2]
  Binding to the IL-22RA1 subunit of the receptor: reduce binding

B8: Y51A: variant of IL-22 (SEQ ID NO: 5) in which Y51 is mutated to A (protein, listed as Homo sapiens)
chain: MAALQKSVSSFLMGTLATSCLLLLALLVQGGAAAPISSHCRLDKSNFQQPAITNRTFMLAKEASLADNNTDVRLIGEKLFHGVSMSERCYLMKQVLNFTLEEVLFPQSDRFQPYMQEVVPFLARLSNRLSTCHIEGDDLHIQRNVQKLKDTVKKLGESGEIKAIGELDLLFMSLRNACI
[1]
  Binding to the IL-22R complex: reduce binding

B9: I161A: variant of IL-22 (SEQ ID NO: 5) in which I161 is mutated to alanine (protein, listed as Homo sapiens)
chain: MAALQKSVSSFLMGTLATSCLLLLALLVQGGAAAPISSHCRLDKSNFQQPYITNRTFMLAKEASLADNNTDVRLIGEKLFHGVSMSERCYLMKQVLNFTLEEVLFPQSDRFQPYMQEVVPFLARLSNRLSTCHIEGDDLHIQRNVQKLKDTVKKLGESGEAKAIGELDLLFMSLRNACI
[2]
  Binding to the IL-22RA1 subunit of the receptor: reduce binding

B10: F121A: variant of IL-22 (SEQ ID NO: 5) in which F121 is mutated to alanine (protein, listed as Homo sapiens)
chain: MAALQKSVSSFLMGTLATSCLLLLALLVQGGAAAPISSHCRLDKSNFQQPYITNRTFMLAKEASLADNNTDVRLIGEKLFHGVSMSERCYLMKQVLNFTLEEVLFPQSDRFQPYMQEVVPALARLSNRLSTCHIEGDDLHIQRNVQKLKDTVKKLGESGEIKAIGELDLLFMSLRNACI
[1]
  Binding to the IL-22R complex: reduce binding

B11: R55A: variant of IL-22 (SEQ ID NO: 5) in which R55 is mutated to alanine (protein, listed as Homo sapiens)
chain: MAALQKSVSSFLMGTLATSCLLLLALLVQGGAAAPISSHCRLDKSNFQQPYITNATFMLAKEASLADNNTDVRLIGEKLFHGVSMSERCYLMKQVLNFTLEEVLFPQSDRFQPYMQEVVPFLARLSNRLSTCHIEGDDLHIQRNVQKLKDTVKKLGESGEIKAIGELDLLFMSLRNACI
[1]
  Binding to the IL-22R complex: reduce binding
